Our source for the Kd values is patent US20200131515.

Common to all, as to experiment: SPR
For data set [1], the system named is H-LDL particle (small dense LDL). The note with it: 5' disulfide, unit inferred.
Data set [2] concerns HDL particle (high-density lipoprotein). The note with it: 5' disulfide; 100 nM HDL, selection buffer.
Data set [3] has as its system LDL particle (low-density lipoprotein, apoB-containing), commercial. The note with it: 5' disulfide.
The test system of data set [4] is L-LDL particle (large fluffy LDL). The note with it: 5' disulfide; unit inferred.
[5] abbreviates: 1 nM LDL added to 1% blood serum in selection buffer.
[6] abbreviates: 1 nM LDL, selection buffer, repeat on gold chip.
Where [7] appears, read: aptamer on gold chip, unit inferred.
Setting [8] is: printed kD differs from kd/ka of same row.

Take “AACTACATGGTATGTGGTGAACTAAACCATTCTTGTCTCGCATTTTTCTCTTTTATATTATTTGACGTACAATGTACCC [LDL-A38]”: the Kd in data set [1] was 0.234 nM; in data set [2], 11.5 nM; in data set [3] (setting [5]), 0.0178 nM; in data set [3] (setting [6]), 0.0207 nM; in data set [3] (setting [7]) it was 0.0455 nM.

As to “AACTACATGGTATGTGGTGAACTAACCTTAATTTACCCTTGTTTTATCATTTCCATCATAGCTGACGTACAATGTACCC [LDL-A12]”, the Kd was 0.023 nM in data set [1]; 7.25 nM in data set [2]; 0.0466 nM in data set [3] (setting [5]); 0.0108 nM in data set [3] (setting [6]); 0.0497 nM in data set [3] (setting [7]).

For “AACTACATGGTATGTGGTGAACTACCTCGATTTTATATTATTTCGCTTACCAACAACTGCAGAGACGTACAATGTACCC [LDL-A1]”, the Kd came out at 1.23 nM in data set [1] (setting [8]), 9.01 nM in data set [2], 0.0327 nM in data set [4] and 0.00168 nM in data set [3] (setting [6]).

For the sequence “AACTACATGGTATGTGGTGAACTCACGCGCATAACCCTTTTTTCACCTGCCCTTTTAACTAATGACGTACAATGTACCC [LDL-A274]”, the Kd in data set [1] (setting [8]) amounted to 0.792 nM; in data set [2], 8.26 nM; in data set [4], 0.482 nM; in data set [3] (setting [5]), 0.114 nM; in data set [3] (setting [6]), 0.0214 nM; in data set [3] (setting [7]), 0.0773 nM.

Turning to “AACTACATGGTATGTGGTGAACTGTCAGCTTCTTCTATATAATTCACCTTGCCTCTCGTTCCTGACGTACAATGTACCC [LDL-A2]”, the Kd in data set [2] was 9.69 nM; in data set [4] it was 0.0159 nM; in data set [3] (setting [5]), 0.00512 nM; in data set [3] (setting [6]), 0.015 nM; in data set [3] (setting [7]), 0.0421 nM.
